The text below walks through data of US20100138945A1 (FEMTA PHARMACEUTICALS, published 2010).

Where a chain is given by its changes, count along the chain named.

Sequences and labels used below:
B1: Anti-IL-6 Ab BA802 (antibody, V domains shown)
VH: QVQLVQSGAEVKKPGASVKVSCKASGFTFSSFAMSWIRQSPSRGLEWLGEISSGGSYTYYPDTVTGRFTISRDNAKNSLYLQMNSLRAEDTAVYYCARGLWGYYALDYWGQG
VL: EIVLTQSPDFQSVTPKEKVTITCSASSSVSYMYWYLQKPGQSPQLLIYDTSNLASGVPSRFSGSGSGTDFTLTISSLQPEDFATYYCQQWSGYPYTFGQG
notes: Humanized monoclonal antibody
B2: Anti-IL-6 Ab BA840 (antibody, V domains shown)
VH: B1 VH with S40P, S42G, R43K, L48I
VL: EIVLTQSPDFQSVTPKEKVTITCSASSSVSYMYWYLQKPGQSPQLLIYDTSNLASGIPPRFSGSGYGTDFTLTINNIESEDAAYYFCQQWSGYPYTFGQG
notes: Humanized monoclonal antibody
B3: Anti-IL-6 Ab BA808 (antibody, V domains shown)
VH: B1 VH
VL: B2 VL with D9A, F10T, Q11L, T14S, K16G, K18R, V19A, I21L, T22S
notes: Humanized monoclonal antibody
B4: Anti-IL-6 Ab BA848 (antibody, V domains shown)
VH: B1 VH with Q1E, I37V, S40A, S42G, R43Q, L48M
VL: AIQLTQSPSSLSASVGDRVTITCSASSSVSYMYWYQQKPGQAPRLLIYDTSNLASGIPPRFSGSGYGTDFTLTINNIESEDAAYYFCQQWSGYPYTFGQG
notes: Humanized monoclonal antibody
B5: Anti-IL-6 Ab BA890 (antibody, V domains shown)
VH: B1 VH with S40P, S42G, R43K, L48I
VL: B4 VL
notes: Humanized monoclonal antibody
B6: Anti-IL-6 Ab BA939 (antibody, V domains shown)
VH: B1 VH with I37V, S40A, S42G, R43Q, L48M
VL: B4 VL with A1D, L4M
notes: Humanized monoclonal antibody
B7: Clone BA399-09 (antibody, V domains shown)
VH: B1 VH with A33S, T58H, L100Q
VL: B4 VL with S24Y, S51L
notes: also called BA399-9; BA399 clone #9
B8: BA399_CPS_10 (antibody, V domains shown)
VH: B1 VH with G26H, A33S, T58H, L100Q
VL: B4 VL with S24Y, S51L
notes: also called Clone BA399-10; BA399_10
B9: Clone BA399-02 (antibody, V domains shown)
VH: B1 VH with A33S, V64K, L100Q
VL: B4 VL with S24Y
notes: also called BA399-2; BA399 clone #2
B10: Clone BA399-05 (antibody, V domains shown)
VH: B1 VH with V64K, L100Q
VL: B4 VL with S24Y, Q89D
notes: also called BA399-5
B11: BA399_CPS_04 (antibody, V domains shown)
VH: B1 VH with A33S, L100Q
VL: B4 VL with Q89D
notes: also called Clone BA399-04; BA399_04
B12: BA399_CPS_06 (antibody, V domains shown)
VH: B1 VH with A33S, T58H, L100Q
VL: B4 VL with S24Y, S51L, Q89D
notes: also called Clone BA399-06; BA399_06
B13: BA399_CPS_03 (antibody, V domains shown)
VH: B1 VH with G26H, T58H, L100Q
VL: B4 VL with S51L
notes: also called Clone BA399-03; BA399_03
B14: BA399_CPS_01 (antibody, V domains shown)
VH: B1 VH with L100Q
VL: B4 VL with Q89D
notes: also called Clone BA399-01; BA399_01

One assay has as its target T1, human IL-6 (Interleukin-6) (human, UniProt P05231 30-212).
T1 construct: also called 001 IL-6 antigen
Kind of assay: Biacore (SPR), antibody captured on anti-human Fc, IL-6 as analyte.
The term Kd denotes the free concentration of one partner at which half of the binding sites on the other are occupied at equilibrium, for simple one-to-one binding. A lower Kd goes with higher affinity. For orientation: koff means a measure of how fast the partners let go of each other. As a reminder, the kon is the second-order rate constant of association. High values mean faster complex formation, low ones slower complex formation. On to B1, for which the dissociation constant (Kd) stood at 39.6 pM, the koff was 5.88e-05 s⁻¹ and the kon was 1.48e+06 M⁻¹ s⁻¹.
For B2 the same measures were 236 pM, 0.000237 s⁻¹ and 1.01e+06 M⁻¹ s⁻¹.
Turning to B3, binding was put at a Kd of 50.5 pM, the off-rate (koff) came to 6.59e-05 s⁻¹ and the kon amounted to 1.31e+06 M⁻¹ s⁻¹.
With B4, the affinity, expressed as Kd, was 127 pM; the koff was found to be 0.000158 s⁻¹; the kon worked out at 1.25e+06 M⁻¹ s⁻¹.
With B5, the affinity, expressed as Kd, was 86.5 pM; the koff was found to be 6.44e-05 s⁻¹; the on-rate (kon) is 745000 M⁻¹ s⁻¹.
B6 showed a dissociation constant (Kd) of 40 pM, an off-rate constant (koff) of 5.76e-05 s⁻¹ and an on-rate (kon) of 1.44e+06 M⁻¹ s⁻¹.

Another assay has as its target T1, human IL-6 (Interleukin-6). Described as above. This is another data set of the same source.
In turn, B7 registered a Ka of 1.28e+13 M⁻¹, a Kd of 0.0783 pM, an off-rate (koff) of 5.07e-08 s⁻¹ and a kon of 648000 M⁻¹ s⁻¹.
Regarding B8, the Ka was 3.52e+12 M⁻¹, the Kd amounted to 0.284 pM, the koff amounted to 1.82e-07 s⁻¹ and the kon was determined as 643000 M⁻¹ s⁻¹.
For B9 the same measures were 8.14e+13 M⁻¹, 0.0123 pM, 9.11e-09 s⁻¹ and 742000 M⁻¹ s⁻¹.
The like results for B10 were, in that order, 3.52e+10 M⁻¹, 28.4 pM, 2.86e-05 s⁻¹ and 1.01e+06 M⁻¹ s⁻¹.

For the next assay, the target named is T1, human IL-6 (Interleukin-6). In words: specific activity: affinity ELISA on IL-6 divided by quantitation ELISA, normalized to BA399 = 1. As to the method:
200 μl washing solution (0.05% Tween-20 in PBS) was added and shaken at 200 RPM for 5 min at room temperature. The plates were emptied and residual liquid tapped out on paper towels. 200 μl blocking solution (2% Carnation milk in PBS) was added and shaken at 200 RPM for one hour at room temperature. Plates were emptied and residual liquid tapped out on paper towels. 100 μl of diluted samples for ELISA was used. The samples were shaken at 200 RPM for one hour at room temperature; plates emptied and residual liquid tapped out on paper towels. 200 μl washing solution (0.05% Tween-20 in PBS) was added, shaken at 200 RPM for 5 min at room temperature; plates emptied and residual liquid tapped out on paper towels. This process was repeated three times. 100 μl of 1:2500 dilution of anti-human IgG conjugated with HRP diluted in block solution (2% Carnation milk in PBS) was added for 001 samples. 100 μl of 1:2500 dilution of anti-rabbit IgG conjugated with HRP diluted in block solution (2% Carnation milk in PBS) was added for control antibody. The contents were shaken at 200 RPM for one hour at room temperature, plates emptied and residue liquid tapped out on paper towels. 200 μl washing solution (0.05% Tween-20 in PBS) was added, shaken at 200 RPM for 5 min at room temperature; plates emptied and residual liquid tapped out on paper towels. This process was repeated three times. 100 μl TMB substrate solution was added, and incubated at room temperature. The reaction was stopped with 1 N HCl, and the plate read at 450 nm.
This ELISA was used for determining the expression level of antibodies in cell culture supernatant. […] Covered with plate sealer and incubated at 4° C. overnight. Emptied plate and tapped out residual liquid on paper towels. Added 200 μl washing solution (0.05% Tween-20 in PBS). Shaken at 200 RPM for 5 min at room temperature. Emptied plate and tapped out residual liquid on paper towels. Added 200 μl blocking solution (2% Carnation milk in PBS). Shaken at 200 RPM for one hour at room temperature. Emptied plate and tapped out residual liquid on paper towels. Used 100 μl of diluted sample for ELISA. 20 ng/ml of human IgG and 1:2 dilution thereafter was used for standards.
Background: ELISA stands for enzyme-linked immunosorbent assay.
For B11, the binding result is reported as “binds”.
The same measure, in the same setting: the value for B12 was “binds”.
On the same count and under the same terms, the value for B13 was “binds”.
Still for that read-out and setting: in the case of B14 it was “binds”.

The target of a further assay is T1, human IL-6 (Interleukin-6). Kind of assay: Sapidyne KinExA kinetic exclusion assay on IL-6; Kd Range (95% Confidence Interval) printed: 5.66pM to 3.28pM. Background: In KinExA the mixture passes briefly over coated beads that capture the unbound partner.
Target sequence in this assay (P05231 30-212 limits assumed): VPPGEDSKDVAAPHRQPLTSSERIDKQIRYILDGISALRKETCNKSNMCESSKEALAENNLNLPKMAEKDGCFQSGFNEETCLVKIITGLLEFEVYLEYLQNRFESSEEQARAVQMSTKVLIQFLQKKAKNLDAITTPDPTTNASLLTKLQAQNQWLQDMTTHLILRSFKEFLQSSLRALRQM
As to “Anti-IL-6 Mab BA003 (CNTO136) (antibody)”, the Kd is 4.37 pM. That is a picomolar value.
